From paper PMC5898713

How the values were obtained:
[1] = molecular target: PhyT (formerly PhyP), T25 fusion; assay: BACTH β-galactosidase assay; details: Overnight cultures containing 0.5 mM IPTG and antibiotics for selection, 30°C; three biological replicates; parent: est. 3000; read off a plot
[2] = molecular target: NepR wild-type, T25 fusion; assay: BACTH β-galactosidase assay; details: Overnight cultures containing 0.5 mM IPTG and antibiotics for selection, 30°C; three biological replicates; parent: est. 1500; read off a plot

response [1]	response [2]	Substance
1100 Miller units	300 Miller units	PhyR wild-type, T18 fusion D194A
780 Miller units	6900 Miller units	PhyR wild-type, T18 fusion D194A; E235A
3100 Miller units	7100 Miller units	PhyR wild-type, T18 fusion E235A
